Results reported in US20110045003A1 (SYNOVEX, published 2011).

T1: BSA coupled 37-mer Cad-11 peptide encompassing the Cad-11 immunogen (UniProt P55287 54-90, limits assumed, linked to BSA)
T1 construct: domain: 37-mer peptide encompassing the Cad-11 immunogen; also called Cad-11 antigen; Cad-11 peptide immunogen
T1 peptide (looked up): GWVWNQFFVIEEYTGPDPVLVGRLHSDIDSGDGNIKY

T2: recombinant Cad-11 EC1 human IgG1 fusion protein (R&D Systems Cat. No. 1790-CA-050) (human, UniProt P55287 54-617, limits assumed)
T2 construct: Bought protein; the catalogue product may hold more of the extracellular region; also called recombinant human Cad-11 EC1; recombinant human Cad-11 fusion protein; not shown: human IgG1 part of the bought fusion protein
T2 sequence: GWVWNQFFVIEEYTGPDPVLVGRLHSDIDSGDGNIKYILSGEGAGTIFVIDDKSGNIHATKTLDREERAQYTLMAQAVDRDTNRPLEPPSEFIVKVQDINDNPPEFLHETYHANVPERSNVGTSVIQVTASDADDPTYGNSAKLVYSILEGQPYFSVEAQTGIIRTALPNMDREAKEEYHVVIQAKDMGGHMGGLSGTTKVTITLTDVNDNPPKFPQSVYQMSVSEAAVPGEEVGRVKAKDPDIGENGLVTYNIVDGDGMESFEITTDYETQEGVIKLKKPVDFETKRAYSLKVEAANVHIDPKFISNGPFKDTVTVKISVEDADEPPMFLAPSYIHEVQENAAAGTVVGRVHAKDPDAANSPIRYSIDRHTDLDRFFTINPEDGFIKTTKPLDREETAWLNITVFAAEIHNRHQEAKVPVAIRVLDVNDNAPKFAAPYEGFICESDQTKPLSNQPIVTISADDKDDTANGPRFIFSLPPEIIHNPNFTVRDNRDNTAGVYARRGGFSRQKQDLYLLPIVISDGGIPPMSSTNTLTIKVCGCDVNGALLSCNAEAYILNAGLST

B1: humanized anti-Cad-11 antibody SDP081 (Vκ2/VH3) (antibody, IgG4, V domains shown)
VH: EVQLVQSGAEVKKPGASVKISCKASGYSFTGYFMNWVRQAPGQGLEWIGRINPYTGDTFYNQKFKGRATLTVDKSTSTAYMELSSLRSEDTAVYYCGRLGSRYWYFDVWGQGTTVTVSS
VL: DVLMTQTPLSSPVTLGQPASISCRSSQSIIHSNGNTYLEWYLQKPGQSPQLLIYKVSNRFSGVPDRFSGSGSGTDFTLKISRVEAEDVGVYYCFQGSHVPWTFGQGTKLEIK
notes: humanized IgG4 (S241P), kappa
B2: humanized anti-Cad-11 antibody SDP091 (Vκ2/VH4) (antibody, IgG4, V domains shown)
VH: EVQLVQSGAEVKKPGASVKVSCKASGYSFTGYFMNWVRQAPGQGLEWIGRINPYTGDTFYNQKFKGRATITVDKSTSTAYMELSSLRSEDTAVYYCGRLGSRYWYFDVWGQGTTVTVSS
VL: DVLMTQTPLSSPVTLGQPASISCRSSQSIIHSNGNTYLEWYLQKPGQSPQLLIYKVSNRFSGVPDRFSGSGSGTDFTLKISRVEAEDVGVYYCFQGSHVPWTFGQGTKLEIK
notes: humanized IgG4 (S241P), kappa
B3: humanized anti-Cad-11 antibody SDP121 (Vκ3/VH2) (antibody, IgG4, V domains shown)
VH: EVQLVQSGAEVKKPGASVKISCKASGYSFTGYFMNWVKQAPGQGLEWIGRINPYTGDTFYNQKFKGRATLTVDKSTSTAYMELSSLRSEDTAVYYCGRLGSRYWYFDVWGQGTTVTVSS
VL: DVVMTQTPLSSPVTLGQPASISCRSSQSIIHSNGNTYLEWYLQKPGQSPQLLIYKVSNRFSGVPDRFSGSGSGTDFTLKISRVEAEDVGVYYCFQGSHVPWTFGQGTKLEIK
notes: humanized IgG4 (S241P), kappa
B4: humanized anti-Cad-11 antibody SDP141 (Vκ3/VH4) (antibody, IgG4, V domains shown)
VH: EVQLVQSGAEVKKPGASVKVSCKASGYSFTGYFMNWVRQAPGQGLEWIGRINPYTGDTFYNQKFKGRATITVDKSTSTAYMELSSLRSEDTAVYYCGRLGSRYWYFDVWGQGTTVTVSS
VL: DVVMTQTPLSSPVTLGQPASISCRSSQSIIHSNGNTYLEWYLQKPGQSPQLLIYKVSNRFSGVPDRFSGSGSGTDFTLKISRVEAEDVGVYYCFQGSHVPWTFGQGTKLEIK
notes: humanized IgG4 (S241P), kappa
B5: humanized anti-Cad-11 antibody SDP111 (Vκ3/VH1) (antibody, IgG4, V domains shown)
VH: EVQLVQSGPELKKPGASVKISCKASGYSFTGYFMNWVKQAHGQGLEWIGRINPYTGDTFYNQKFKGRATLTVDKSSSTAYMELVSLSSEDSAVYYCGRLGSRYWYFDVWGQGTTVTVSS
VL: DVVMTQTPLSSPVTLGQPASISCRSSQSIIHSNGNTYLEWYLQKPGQSPQLLIYKVSNRFSGVPDRFSGSGSGTDFTLKISRVEAEDVGVYYCFQGSHVPWTFGQGTKLEIK
notes: humanized IgG4 (S241P), kappa
B6: humanized anti-Cad-11 antibody SDP151 (Vκ3/VH5) (antibody, IgG4, V domains shown)
VH: EVQLVQSGAEVKKPGASVKVSCKASGYSFTGYFMNWVRQAPGQGLEWIGRINPYTGDTFYNQKFKGRVTITVDKSTSTAYMELSSLRSEDTAVYYCGRLGSRYWYFDVWGQGTTVTVSS
VL: DVVMTQTPLSSPVTLGQPASISCRSSQSIIHSNGNTYLEWYLQKPGQSPQLLIYKVSNRFSGVPDRFSGSGSGTDFTLKISRVEAEDVGVYYCFQGSHVPWTFGQGTKLEIK
notes: humanized IgG4 (S241P), kappa
B7: humanized anti-Cad-11 antibody SDP041 (Vκ1/VH4) (antibody, IgG4, V domains shown)
VH: EVQLVQSGAEVKKPGASVKVSCKASGYSFTGYFMNWVRQAPGQGLEWIGRINPYTGDTFYNQKFKGRATITVDKSTSTAYMELSSLRSEDTAVYYCGRLGSRYWYFDVWGQGTTVTVSS
VL: DVLMTQTPLSSPVTLGQPASISCRSSQSIIHSNGNTYLEWYLQKPGQSPQLLIYKVSNRFSGVPDRFTGSGSGTDFTLKISRVEAEDVGVYYCFQGSHVPWTFGQGTKLEIK
notes: humanized IgG4 (S241P), kappa
B8: humanized anti-Cad-11 antibody SDP131 (Vκ3/VH3) (antibody, IgG4, V domains shown)
VH: EVQLVQSGAEVKKPGASVKISCKASGYSFTGYFMNWVRQAPGQGLEWIGRINPYTGDTFYNQKFKGRATLTVDKSTSTAYMELSSLRSEDTAVYYCGRLGSRYWYFDVWGQGTTVTVSS
VL: DVVMTQTPLSSPVTLGQPASISCRSSQSIIHSNGNTYLEWYLQKPGQSPQLLIYKVSNRFSGVPDRFSGSGSGTDFTLKISRVEAEDVGVYYCFQGSHVPWTFGQGTKLEIK
notes: humanized IgG4 (S241P), kappa
B9: humanized anti-Cad-11 antibody SDP101 (Vκ2/VH5) (antibody, IgG4, V domains shown)
VH: EVQLVQSGAEVKKPGASVKVSCKASGYSFTGYFMNWVRQAPGQGLEWIGRINPYTGDTFYNQKFKGRVTITVDKSTSTAYMELSSLRSEDTAVYYCGRLGSRYWYFDVWGQGTTVTVSS
VL: DVLMTQTPLSSPVTLGQPASISCRSSQSIIHSNGNTYLEWYLQKPGQSPQLLIYKVSNRFSGVPDRFSGSGSGTDFTLKISRVEAEDVGVYYCFQGSHVPWTFGQGTKLEIK
notes: humanized IgG4 (S241P), kappa
B10: humanized anti-Cad-11 antibody SDP021 (Vκ1/VH2) (antibody, IgG4, V domains shown)
VH: EVQLVQSGAEVKKPGASVKISCKASGYSFTGYFMNWVKQAPGQGLEWIGRINPYTGDTFYNQKFKGRATLTVDKSTSTAYMELSSLRSEDTAVYYCGRLGSRYWYFDVWGQGTTVTVSS
VL: DVLMTQTPLSSPVTLGQPASISCRSSQSIIHSNGNTYLEWYLQKPGQSPQLLIYKVSNRFSGVPDRFTGSGSGTDFTLKISRVEAEDVGVYYCFQGSHVPWTFGQGTKLEIK
notes: humanized IgG4 (S241P), kappa
B11: humanized anti-Cad-11 antibody SDP011 (Vκ1/VH1) (antibody, IgG4, V domains shown)
VH: EVQLVQSGPELKKPGASVKISCKASGYSFTGYFMNWVKQAHGQGLEWIGRINPYTGDTFYNQKFKGRATLTVDKSSSTAYMELVSLSSEDSAVYYCGRLGSRYWYFDVWGQGTTVTVSS
VL: DVLMTQTPLSSPVTLGQPASISCRSSQSIIHSNGNTYLEWYLQKPGQSPQLLIYKVSNRFSGVPDRFTGSGSGTDFTLKISRVEAEDVGVYYCFQGSHVPWTFGQGTKLEIK
notes: humanized IgG4 (S241P), kappa

Experiments:
[1] = biological target: T1, BSA coupled 37-mer Cad-11 peptide …; experiment: ELISA, BSA-coupled 37-mer cadherin peptide coated at 500 ng/ml, antibody titrated, A450
Experimental: Reactibind plates (ThermoScientific) were coated with 500 ng/ml of the BSA coupled cadherin 37-mer peptide (NE peptide) corresponding to Cadherins-7, -8, -9, -11, -18, -20, and -24 in 0.05% Tween (EMD, product code 9480) in PBS (pH 7.2) (Gibco(Invitrogen), #20012) at 100 μl volume/well for overnight at 4° C. The peptide containing solution was removed from the well and the plate blocked with a 2% bovine serum albumin (BSA) in PBS, 200 μl volume/well, for 2 h at 22° C. The plate was then washed twice with 200 μl/well of PBS-Tween 0.05% at 22° C. and blotted dry. A dilution series from 5 μg/ml to 8 ng/ml in a volume of 100 μl/well of each the humanized anti-Cad-11 antibodies were incubated in the peptide coated wells and incubated at 22° C. for 1 hr. Antibody solution was removed from the wells and the plate washed twice with 200 μl/well of 0.05% Tween-PBS at 22° C. and blotted dry. The goat-anti mouse IgG (Pierce # 31432) was added to each well to plate at a 1:1000 dilution, 100 μl/well and incubate at 22° C. for 30 min. The secondary antibody solution was removed and the plate washed twice with 200 μl/well of 0.05% Tween-PBS at 22° C. and blotted dry. The reaction was developed by adding 100 μl/well tetramethylbenzidine (TMB) reagent IgG (Pierce # 34022, 1 step Turbo TMB-ELISA) to plate and developed at 22° C. for 5 min.

[2] = biological target: T2, recombinant Cad-11 EC1 human IgG1 …; experiment: competition ELISA on coated recombinant human Cad-11 EC1 fusion; competitor biotinylated SYN0012/H1M1 at 0.1 µg/ml
Experimental: (§1) The binding of the purified humanized composite variant antibodies (SDP011 to SDP151) to a recombinant Cad-11 EC1 human IgG1 fusion protein was assessed in a competition binding ELISA. A dilution series from 5 μg/ml to 0.0022 μg/ml of the humanized or control (SYN0012/H1M1) antibodies was premixed with a constant concentration of biotinylated murine anti-Cad-11 antibody, SYN0012/H1M1 (0.1 μg/ml, final concentration), before incubating for 1 hour at room temperature on a Nunc Immuno MaxiSorp 96 well flat bottom microtitre plate (Fisher Cat. No. DIS-971-030J) pre-coated with 0.25 μg/ml recombinant human Cad-11 EC1 (R&D Systems Cat. No. 1790-CA-050) diluted in PBS. The binding of the biotinylated mAb was detected with streptavidin-HRP (Sigma Cat. No. 55512) and tetramethylbenzidine (TMB) substrate (Invitrogen Cat. No. 00-2023).
The relative IC50 was calculated by dividing the value for the test antibody by that of SYN0012. Antibody expression levels given are for static cultures in T flasks. PI are calculated.

[3] = biological target: T2, recombinant Cad-11 EC1 human IgG1 …; experiment: competition ELISA: antibody dilution series premixed with biotinylated SYN0012/H1M1 (0.1 µg/ml) on plate-coated recombinant human Cad-11 EC1 fusion protein; OD450 = bound biotinylated SYN0012
Experimental: as §1

[4] = biological target: T2, recombinant Cad-11 EC1 human IgG1 …; experiment: competition ELISA on coated recombinant human Cad-11 EC1 fusion protein; competitor biotinylated SYN0012 at 0.1 µg/ml, streptavidin-HRP, OD450
Experimental: as §1

Binder	EC50 (read off the curve) [1]	relative IC50 (IC50 of the test antibody divided by that of SYN0012) [2]	IC50 (read off the curve) [3]	IC50 (read off the curve) [4]
B1	~0.08 µg/mL	0.42 ratio (column head prints µg/mL)	–	–
B2	~0.07 µg/mL	0.57 ratio (column head prints µg/mL)	–	–
B3	~0.06 µg/mL	0.52 ratio (column head prints µg/mL)	~0.2 µg/mL	–
B4	~0.06 µg/mL	0.61 ratio (column head prints µg/mL)	~0.2 µg/mL	–
B5	~0.07 µg/mL	0.68 ratio (column head prints µg/mL)	~0.2 µg/mL	–
B6	~0.06 µg/mL	0.72 ratio (column head prints µg/mL)	~0.2 µg/mL	–
B7	~0.06 µg/mL	0.65 ratio (column head prints µg/mL)	–	~0.1 µg/mL
B8	~0.07 µg/mL	0.55 ratio (column head prints µg/mL)	~0.2 µg/mL	–
B9	~0.07 µg/mL	0.53 ratio (column head prints µg/mL)	–	–
B10	~0.06 µg/mL	0.67 ratio (column head prints µg/mL)	–	~0.1 µg/mL
B11	~0.07 µg/mL	0.91 ratio (column head prints µg/mL)	–	~0.2 µg/mL
